Source: paper PMC3577348 (Science (New York, N.Y.), 2012)

T1: mini-XWnt8 (C-terminal fragment of XWnt8, residues 248-338) displayed on yeast (Xenopus, UniProt P28026 248-338)
T1 sequence (looked up): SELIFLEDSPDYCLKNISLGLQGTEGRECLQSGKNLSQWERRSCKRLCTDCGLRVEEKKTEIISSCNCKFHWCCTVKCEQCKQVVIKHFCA

B1: soluble mini-XWnt8 (residues 248-338) with C-terminal six-histidine tag (domain or fragment, Xenopus, UniProt P28026 248-338, looked up)
chain: T1 sequence (looked up)
B2: mouse Fz8-CRD (residues 32-151), biotinylated (domain or fragment, UniProt Q61091 32-151, looked up)
chain: ELACQEITVPLCKGIGYNYTYMPNQFNHDTQDEAGLEVHQFWPLVEIQCSPDLKFFLCSMYTPICLEDYKKPLPPCRSVCERAKAGCAPLMRQYGFAWPDRMRCDRLPEQGNPDTLCMDY
modifications: biotin on the BAP-tag (enzymatic, GST-BirA ligase)
B3: human Fz5-CRD (residues 30-150), biotinylated (domain or fragment, UniProt Q13467 30-150, looked up)
chain: APVCQEITVPMCRGIGYNLTHMPNQFNHDTQDEAGLEVHQFWPLVEIQCSPDLRFFLCSMYTPICLPDYHKPLPPCRSVCERAKAGCSPLMRQYGFAWPERMSCDRLPVLGRDAEVLCMDY
modifications: biotin on the BAP-tag (enzymatic, GST-BirA ligase)

Key:
[1] = target: B3; assay: SPR
[2] = target: B2; assay: SPR
[3] = target: T1, mini-XWnt8 (C-terminal fragment of …); assay: flow cytometry on cells

Row | Binder | Kd [1] [nM] | Kd [2] [nM] | percent of yeast stained [3] [%]
1 | B1 | ~3500 | ~2400 | –
2 | B2 | – | – | ~50
3 | B3 | – | – | ~30
